Several values for one entry are separate records, joined by “and”; a condition that tells them apart may be missing. Identical values can stand only once. Each block holds one molecule with its values, some of them ahead of it.
Experiments:
[1] = biological target: Hp of the Hp(2)Ab(1) complex; assay: native MS; tandem MS with increasing collisional energy of the bait-target complex Hp(2)Hb(4)Ab(1), Hb as bait
[2] = biological target: T1, Thermoplasma acidophilum 20S proteasome β subunit with Twin-Strep-tag (Thermoplasma acidophilum, UniProt P28061 9-211); assay: native MS; 20S purified with Strep-Tactin SNAP beads, α and β coded in the same plasmid; 150 mM ammonium acetate; settings: partners not purified
T1 construct: 20S proteasome β subunit of Thermoplasma acidophilum; not shown: Twin-Strep-tag, C-terminal, kept
T1 sequence (looked up): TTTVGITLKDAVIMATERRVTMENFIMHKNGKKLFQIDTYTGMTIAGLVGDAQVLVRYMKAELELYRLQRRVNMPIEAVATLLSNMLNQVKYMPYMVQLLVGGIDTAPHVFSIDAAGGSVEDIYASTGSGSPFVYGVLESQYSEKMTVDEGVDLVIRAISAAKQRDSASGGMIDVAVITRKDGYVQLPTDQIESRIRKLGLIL

[3] = biological target: the molecule itself; assay: native MS; 20S purified with Strep-Tactin SNAP beads, α and β expressed from two separate plasmids; 150 mM ammonium acetate

stoichiometry N [1]: 2
Molecule: Hp of the Hp(2)Ab(1) complex

stoichiometry N [2]: 28 subunits in the complex of α and β
B1: Thermoplasma acidophilum 20S proteasome α subunit, unmodified (natural protein, UniProt P25156 1-233, looked up)
chain: MQQGQMAYDRAITVFSPDGRLFQVEYAREAVKKGSTALGMKFANGVLLISDKKVRSRLIEQNSIEKIQLIDDYVAAVTSGLVADARVLVDFARISAQQEKVTYGSLVNIENLVKRVADQMQQYTQYGGVRPYGVSLIFAGIDQIGPRLFDCDPAGTINEYKATAIGSGKDAVVSFLEREYKENLPEKEAVTLGIKALKSSLEEGEELKAPEIASITVGNKYRIYDQEEVKKFL
notes: 20S proteasome α subunit of Thermoplasma acidophilum; The results call this α subunit unmodified; the methods say that the constructs were tagged at the C-termini with either a Twin-Strep-tag or a His tag
stoichiometry N [3]: 7 and 14
